Data set [1] can be described thus: p24 ELISA of virus replication over 12 days. The settings on record: glycan lost; control: CXCR4 wt cells. On the technique in general: ELISA stands for enzyme-linked immunosorbent assay.
Data set [2] in a line: flow cytometry, PE-labelled mAb 12G5, cell surface. The settings on record: glycan lost; control: CXCR4 wt (CXCR4+g1g2). For orientation: In flow cytometry, cells or beads pass a laser one at a time.

B1: CXCR4: N11Q/N176Q (protein)
parent chain: MEGISIYTSDNYTEEMGSGDYDSMKEPCFREENANFNKIFLPTIYSIIFLTGIVGNGLVILVMGYQKKLRSMTDKYRLHLSVADLLFVITLPFWAVDAVANWYFGNFLCKAVHVIYTVNLYSSVLILAFISLDRYLAIVHATNSQRPRKLLAEKVVYVGVWIPALLLTIPDFIFANVSEADDRYICDRFYPNDLWVVVFQFQHIMVGLILPGIVILSCYCIIISKLSHSKGHQKRKALKTTVILILAFFACWLPYYIGISIDSFILLEIIKQGCEFENTVHKWISITEALAFFHCCLNPILYAFLGAKFKTSAQHALTSVSRGSSLKILSKGKRGGHSSVSTESESSSFHSS
With B1, the “other: cell permissiveness for HIV-1 (coreceptor function)” value (“other: cell permissiveness” below) in data set [1] is “no change”.

B2: CXCR4: N11Q (protein)
parent chain: MEGISIYTSDNYTEEMGSGDYDSMKEPCFREENANFNKIFLPTIYSIIFLTGIVGNGLVILVMGYQKKLRSMTDKYRLHLSVADLLFVITLPFWAVDAVANWYFGNFLCKAVHVIYTVNLYSSVLILAFISLDRYLAIVHATNSQRPRKLLAEKVVYVGVWIPALLLTIPDFIFANVSEADDRYICDRFYPNDLWVVVFQFQHIMVGLILPGIVILSCYCIIISKLSHSKGHQKRKALKTTVILILAFFACWLPYYIGISIDSFILLEIIKQGCEFENTVHKWISITEALAFFHCCLNPILYAFLGAKFKTSAQHALTSVSRGSSLKILSKGKRGGHSSVSTESESSSFHSS
Consider B2, for which, in data set [1], the “other: cell permissiveness” value is given as “no change”.

B3: CXCR4: N176Q (protein)
parent chain: MEGISIYTSDNYTEEMGSGDYDSMKEPCFREENANFNKIFLPTIYSIIFLTGIVGNGLVILVMGYQKKLRSMTDKYRLHLSVADLLFVITLPFWAVDAVANWYFGNFLCKAVHVIYTVNLYSSVLILAFISLDRYLAIVHATNSQRPRKLLAEKVVYVGVWIPALLLTIPDFIFANVSEADDRYICDRFYPNDLWVVVFQFQHIMVGLILPGIVILSCYCIIISKLSHSKGHQKRKALKTTVILILAFFACWLPYYIGISIDSFILLEIIKQGCEFENTVHKWISITEALAFFHCCLNPILYAFLGAKFKTSAQHALTSVSRGSSLKILSKGKRGGHSSVSTESESSSFHSS
Take B3: in data set [2], the “expression_or_secretion, percent_of_wt” value was “no change”. Further, the “other: cell permissiveness” value in data set [1] is reported as “no change”.

B4: CXCR4: S178A (protein)
parent chain: MEGISIYTSDNYTEEMGSGDYDSMKEPCFREENANFNKIFLPTIYSIIFLTGIVGNGLVILVMGYQKKLRSMTDKYRLHLSVADLLFVITLPFWAVDAVANWYFGNFLCKAVHVIYTVNLYSSVLILAFISLDRYLAIVHATNSQRPRKLLAEKVVYVGVWIPALLLTIPDFIFANVSEADDRYICDRFYPNDLWVVVFQFQHIMVGLILPGIVILSCYCIIISKLSHSKGHQKRKALKTTVILILAFFACWLPYYIGISIDSFILLEIIKQGCEFENTVHKWISITEALAFFHCCLNPILYAFLGAKFKTSAQHALTSVSRGSSLKILSKGKRGGHSSVSTESESSSFHSS
Consider B4, for which, in data set [2], the “expression_or_secretion, percent_of_wt” value is “no change”. Moreover, the “other: cell permissiveness” value in data set [1] is listed as “no change”.

B5: CXCR4: T13A (protein)
parent chain: MEGISIYTSDNYTEEMGSGDYDSMKEPCFREENANFNKIFLPTIYSIIFLTGIVGNGLVILVMGYQKKLRSMTDKYRLHLSVADLLFVITLPFWAVDAVANWYFGNFLCKAVHVIYTVNLYSSVLILAFISLDRYLAIVHATNSQRPRKLLAEKVVYVGVWIPALLLTIPDFIFANVSEADDRYICDRFYPNDLWVVVFQFQHIMVGLILPGIVILSCYCIIISKLSHSKGHQKRKALKTTVILILAFFACWLPYYIGISIDSFILLEIIKQGCEFENTVHKWISITEALAFFHCCLNPILYAFLGAKFKTSAQHALTSVSRGSSLKILSKGKRGGHSSVSTESESSSFHSS
Take B5: the “other: cell permissiveness” value in data set [1] is on record as “no change”.

The values above are taken from publication PMC139973.
